Reference: patent US20050074758A1

Columns and labels:
[1] = target: prokineticin receptor(s) of guinea pig ileum (ileal membranes; ileal longitudinal smooth muscle) (guinea pig); experiment: cell-based or functional assay
[2] = target: prokineticin receptor(s) of guinea pig ileum (ileal membranes; ileal longitudinal smooth muscle) (guinea pig); experiment: displacement of 125I-prokineticin 1 (20 pM) from guinea pig ileal membranes, two-site model, low-affinity site
[3] = target: prokineticin receptor(s) of guinea pig ileum (ileal membranes; ileal longitudinal smooth muscle) (guinea pig); experiment: competition radioligand binding on guinea pig ileal membranes, filtration; displaced tracer 125I-prokineticin 1 (20 pM)
[4] = target: prokineticin receptor expressed endogenously on M2A7 melanoma cells (ATCC CRL-2500); experiment: cell-based or functional assay
[5] = target: prokineticin receptor(s) of guinea pig ileum (ileal membranes; ileal longitudinal smooth muscle) (guinea pig); experiment: displacement of 125I-prokineticin 1 (20 pM) from guinea pig ileal membranes, two-site model, high-affinity site
[6] = target: prokineticin receptor(s) of guinea pig ileum (ileal membranes; ileal longitudinal smooth muscle) (guinea pig); experiment: saturation binding of 125I-prokineticin 1 to guinea pig ileal membranes, Scatchard analysis, two-site model, high-affinity site
[7] = target: prokineticin receptor(s) of guinea pig ileum (ileal membranes; ileal longitudinal smooth muscle) (guinea pig); experiment: saturation binding of 125I-prokineticin 1 to guinea pig ileal membranes, Scatchard analysis, two-site model, low-affinity site
[8] = target: prokineticin receptor(s) of guinea pig ileum (ileal membranes; ileal longitudinal smooth muscle) (guinea pig); experiment: saturation binding of 125I-prokineticin 1 to guinea pig ileal membranes, two-site model, low-affinity site
[9] = target: prokineticin receptor(s) of guinea pig ileum (ileal membranes; ileal longitudinal smooth muscle) (guinea pig); experiment: saturation binding of 125I-prokineticin 1 to guinea pig ileal membranes, two-site model, high-affinity site
[10] = target: prokineticin receptor(s) of guinea pig ileum (ileal membranes; ileal longitudinal smooth muscle) (guinea pig); experiment: displacement of 125I-prokineticin 1 (20 pM) from guinea pig ileal membranes, low-affinity site
[11] = target: prokineticin receptor(s) of guinea pig ileum (ileal membranes; ileal longitudinal smooth muscle) (guinea pig); experiment: displacement of 125I-prokineticin 1 (20 pM) from guinea pig ileal membranes, high-affinity site

Binder | time constant to midway contraction of ileal strips [1] [min] | IC50 (read off the curve) [3] [nM] | ED50 of contraction of guinea-pig ileum longitudinal muscle [1] [nM] | EC50 of calcium mobilization in M2A7 melanoma cells (FLIPR) [4] [nM] | further results
chimeric prokineticin 12 (exons 1 and 2 of prokineticin 1, exon 3 of prokineticin 2) (ligand) AVITGACERDVQCGAGTCCAISLWLRGLRMCTPLGREGEECHPGSHKVPFFGRRMHHTCPCLPGLACLRTSFNRFICLAQK | 40 | – | – | – | –
recombinant refolded human prokineticin 1 (unlabeled), 6×His-tagged (ligand) AVITGACERDVQCGAGTCCAISLWLRGLRMCTPLGREGEECHPGSHKVPFFRKRKHHTCPCLPNLLCSRFPDGRYRCSMDLKNINFHHHHHH | 15 | 5 | 0.46 | 12 | Ki [2]: 1.5 nM; Ki [5]: 0.008 nM
125I-prokineticin 1 (iodinated recombinant human prokineticin 1) (ligand, 125I label by the iodogen method; iodinated residue(s) not stated) AVITGACERDVQCGAGTCCAISLWLRGLRMCTPLGREGEECHPGSHKVPFFRKRKHHTCPCLPNLLCSRFPDGRYRCSMDLKNINFHHHHHH | – | – | – | – | Kd [6]: 0.005 nM; Kd [7]: 0.227 nM; Bmax (fmol/mg of protein) [8]: 26.4; Bmax (fmol/mg of protein) [9]: 7.8

Further lines, with some results ahead:

time constant to midway contraction of ileal strips [1] [min] | IC50 (read off the curve) [3] [nM] | ED50 of contraction of guinea-pig ileum longitudinal muscle [1] [nM] | EC50 of calcium mobilization in M2A7 melanoma cells (FLIPR) [4] [nM] | Binder | further results
40 | – | – | – | chimeric prokineticin 21 (exons 1 and 2 of prokineticin 2, exon 3 of prokineticin 1) (ligand) AVITGACDKDSQCGGGMCCAVSIWVKSIRICTPMGKLGDSCHPLTRKVPFFRKRKHHTCPCLPNLLCSRFPDGRYRCSMDLKNINF | EC50 of ileal contraction, fold against prokineticin 1 or prokineticin 2 [1]: 8 fold
15 | 4 | 0.9 | 21 | recombinant refolded human prokineticin 2 (unlabeled), 6×His-tagged (ligand) AVITGACDKDSQCGGGMCCAVSIWVKSIRICTPMGKLGDSCHPLTRKVPFFGRRMHHTCPCLPGLACLRTSFNRFICLAQKHHHHHH | Ki [10]: 1.22 nM; Ki [11]: 0.0042 nM
